Source: patent US7829303 (ELAN PHARMACEUTICALS, dated 2010)
Where no end group is shown, it is not given here. [ ]: non-standard residue; d: D form. Sta = CC(C)C[C@H](N)[C@@H](O)CC(=O)O

Target: T1, recombinant human beta secretase (BACE), E. coli construct pQE70-BACE (human, UniProt P56817 57-453)
T1 construct: also called Asp2; memapsin 2
Assay: affinity chromatography, peptide immobilised on resin
Experimental: Prior to purification, the pH of the refolded protein was lowered from about 10 to 8.5 with HCl. The solution was loaded onto three 50 ml Q-Sepharose columns (Pharmacia Biotech XK 50). The columns were pre-equilibrated in 0.4 M Urea, 10 mM AMPSO, pH 8.5. After refolded protein was loaded onto the columns, they were washed with 500 ml of 0.4 M Urea, 10 mM TRIS, pH 8.2. The columns were eluted with 180-245 ml of 0.75 M NaCl in 0.4 M Urea 10 mM TRIS buffer, pH 8.2. The eluates were then dialyzed versus 20 mM HEPES, pH 8.0. The samples were then removed from dialysis and dropped into 1 M NaMES, pH 5.7 (0.1 M final concentration). After centrifugation (20 K×g) the supernatant was dropped into 1 M Na-acetate, 1 M NaMES, pH 5.0 (0.2 M Na-acetate, 0.28 M Na-MES was the final concentration). […] This solution was then applied to a 15 ml affinity column equilibrated at the same pH. The column was washed with 6 column volumes of 20 mM sodium acetate buffer pH 4.5, 150 mM NaCl. BACE was eluted at pH 8.5 using about 50 ml of 0.1 M borate buffer. This final step removed any residual contaminants. From 40 liter of *E. coli* cell culture, the amount of protein obtained was 137 mg of highly purified pQE70-BACE construct. Purified pQE70-BACE was dialyzed into 100 mM NaBorate pH 8.5.

T1 sequence (P56817 other isoform, or with tags, fused parts or gaps limits assumed): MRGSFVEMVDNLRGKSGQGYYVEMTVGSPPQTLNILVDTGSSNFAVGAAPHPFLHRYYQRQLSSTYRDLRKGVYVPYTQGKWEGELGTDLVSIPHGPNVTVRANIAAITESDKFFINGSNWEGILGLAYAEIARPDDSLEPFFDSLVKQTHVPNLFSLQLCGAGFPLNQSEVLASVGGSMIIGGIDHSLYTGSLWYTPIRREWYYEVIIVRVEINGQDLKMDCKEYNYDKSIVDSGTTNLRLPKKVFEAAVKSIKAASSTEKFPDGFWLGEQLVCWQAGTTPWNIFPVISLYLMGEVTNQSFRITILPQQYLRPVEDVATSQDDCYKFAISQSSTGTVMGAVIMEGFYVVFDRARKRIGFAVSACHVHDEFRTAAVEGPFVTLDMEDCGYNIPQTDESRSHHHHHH

binding result: binds
B1: synthetic peptide Ser-Glu-Val-Asn-Sta-Val-Ala-Glu-Phe-Arg-Gly-Gly-Cys (where Sta=statine) (peptide)
peptide: SEVN[Sta]VAEFRGGC
